According to doi:10.1101/2022.05.21.492920:

Target: SARS-CoV-2 S (Acro Biosystems), unlabelled (SARS-CoV-2) (UniProt P0DTC2)
Test: SPR; Biacore, CM5 chip; S covalently immobilised at pH 4.0 (about 8500 RU); ERα, ACE2 or NRP1 injected at 1.56 to 200 nM; global fit to a single site binding model

Substance | Kd
ERα-full length (InVitrogen), analyte in SPR (from UniProt P03372 1-595) (receptor) | 9.7 nM
recombinant NRP1 (Acro Biosystems), analyte in SPR (from UniProt O14786 22-856) (natural protein) | 89.4 nM
